Data: patent US20210317186A1 (BRIGHAM AND WOMEN S HOSPITAL, published 2021)
Changes are numbered by the printed parent chain. Each block holds one binder with its values, some of them ahead of it.

How the values were obtained:
[1] = target: T1, endogenous CD5L (mouse; in serum or secreted by bone marrow derived dendritic cells) (mouse, UniProt Q9QWK4 22-352); test: sandwich ELISA on mouse serum, capture with anti-IL-12 p40, detection with anti-CD5L
T1 construct: also called natural CD5L; AIM
T1 sequence (looked up): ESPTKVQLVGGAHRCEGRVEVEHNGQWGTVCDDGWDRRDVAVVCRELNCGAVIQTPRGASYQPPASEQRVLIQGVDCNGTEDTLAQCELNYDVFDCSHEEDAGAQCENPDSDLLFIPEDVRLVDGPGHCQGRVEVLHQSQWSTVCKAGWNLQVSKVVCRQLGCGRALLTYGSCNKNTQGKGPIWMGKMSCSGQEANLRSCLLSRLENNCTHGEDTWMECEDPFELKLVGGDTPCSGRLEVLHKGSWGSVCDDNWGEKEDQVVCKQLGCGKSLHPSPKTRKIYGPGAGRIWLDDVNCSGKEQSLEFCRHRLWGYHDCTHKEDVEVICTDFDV
Experimental: Serum was collected kinetically from wildtype and Cd5l^{-/-} mice with DSS-induced colitis (2% DSS in drinking water for 6 days followed by 7 days of normal water) and the level of CD5L:p40 was measured using an ELISA assay. In the ELISA assay anti-IL-12 p40 was used to capture the heterodimer and enzyme linked anti-CD5L was used to detect the heterodimer.
Preliminary screens were conducted to determine what signals could induce CD5L homodimer and CD5L:p40 heterodimer. In particular, bone marrow derived dendritic cells were stimulated with TLR ligands for 24 hours and the supernatant was analyzed for CD5L:p40 secretion by ELISA.

[2] = target: the molecule itself; test: size exclusion chromatography (Superdex S200) of His-tagged CD5L from 293E supernatant
Experimental: Recombinant protein CD5L monomer and homodimer was purified from the supernatant of 293E cells transfected with a CD5L expression vector. Recombinant mCD5L:p40 was recovered from the supernatant of 293E cells transfected with the CD5L:p40 expression vector. After harvesting transfected 293E cells by centrifugation, the protein was affinity purified from the supernatant using Ni Sepharose 6 Fast Flow resin (GE Healthcare). After binding the protein to resin, the resin was washed with 20 mM Tris, 0.3M NaCl, pH 8.0 and the protein eluted using 20 mM Tris, 0.3M NaCl, 0.4M Imidazole, pH 8.0. The protein was further polished by a […] sizing exclusion column (GE Healthcare) in buffer 10 mM NaHPO4, 0.15M NaCl, pH 7.2.

- binding result [1]: binds
B1: endogenous p40 (IL-12 p40, Il12b; mouse) (ligand, UniProt P43432 23-335, looked up)
chain: MWELEKDVYVVEVDWTPDAPGETVNLTCDTPEEDDITWTSDQRHGVIGSGKTLTITVKEFLDAGQYTCHKGGETLSHSHLLLHKKENGIWSTEILKNFKNKTFLKCEAPNYSGRFTCSWLVQRNMDLKFNIKSSSSSPDSRAVTCGMASLSAEKVTLDQRDYEKYSVSCQEDVTCPTAEETLPIELALEARQQNKYENYSTSFFIRDIIKPDPPKNLQMKPLKNSQVEVSWEYPDSWSTPHSYFSLKFFVRIQRKKEKMKETEEGCNQKGAFLVEKTSTEVQCKGGNVCVQAQDRYYNSSCSKWACVPCRVRS
notes: also called interleukin 12B

B2: recombinant CD5L with His tag at C-terminus (mouse, mCD5L) (ligand)
chain: T1 sequence (looked up) with N176S
notes: Made by Biolegend in 293E cells; The transfection gave a monomer and a homodimer fraction on size exclusion; also called soluble CD5L; sCD5L; not shown: His tag at C-terminus
- binding result [2]: binds
